Laboratory results reported in publication PMC9088182 (Cell reports, 2022).

Target: the molecule itself
Test: cryo-EM structure

B1: TRPV5 Thr709Asp phosphomimetic mutant (rabbit) (natural protein)
chain: MGACPPKAKGPWAQLQKLLISWPVGEQDWEQYRDRVNMLQQERIRDSPLLQAAKENDLRLLKILLLNQSCDFQQRGAVGETALHVAALYDNLEAATLLMEAAPELAKEPALCEPFVGQTALHIAVMNQNLNLVRALLARGASVSARATGAAFRRSPHNLIYYGEHPLSFAACVGSEEIVRLLIEHGADIRAQDSLGNTVLHILILQPNKTFACQMYNLLLSYDEHSDHLQSLELVPNHQGLTPFKLAGVEGNTVMFQHLMQKRKHVQWTCGPLTSTLYDLTEIDSWGEELSFLELVVSSKKREARQILEQTPVKELVSFKWKKYGRPYFCVLASLYILYMICFTTCCIYRPLKLRDDNRTDPRDITILQQKLLQEAYVTHQDNIRLVGELVTVTGAVIILLLEIPDIFRVGASRYFGQTILGGPFHVIIITYASLVLLTMVMRLTNMNGEVVPLSFALVLGWCSVMYFARGFQMLGPFTIMIQKMIFGDLMRFCWLMAVVILGFASAFHITFQTEDPNNLGEFSDYPTALFSTFELFLTIIDGPANYSVDLPFMYCITYAAFAIIATLLMLNLFIAMMGDTHWRVAQERDELWRAQVVATTVMLERKMPRFLWPRSGICGYEYGLGDRWFLRVENHHDQNPLRVLRYVEAFKCSDKEDGQEQLSEKRPSTVESGMLSRASVAFQTPSLSRTTSQSSNSHRGWEILRRNDLGHLNLGLDLGEGDGEEVYHF
B1: binds.
